B1: Beta-crystallin A4 (Homo sapiens), P53673 (parent)
chain: MTLQCTKSAGPWKMVVWDEDGFQGRRHEFTAECPSVLELGFETVRSLKVLSGAWVGFEHAGFQGQQYILERGEYPSWDAWGGNTAYPAERLTSFRPAACANHRDSRLTIFEQENFLGKKGELSDDYPSLQAMGWEGNEVGSFHVHSGAWVCSQFPGYRGFQYVLECDHHSGDYKHFREWGSHAPTFQVQSIRRIQQ
B2: Keratin, type II cytoskeletal 6A (Homo sapiens), P02538 (parent)
chain: MASTSTTIRSHSSSRRGFSANSARLPGVSRSGFSSVSVSRSRGSGGLGGACGGAGFGSRSLYGLGGSKRISIGGGSCAISGGYGSRAGGSYGFGGAGSGFGFGGGAGIGFGLGGGAGLAGGFGGPGFPVCPPGGIQEVTVNQSLLTPLNLQIDPTIQRVRAEEREQIKTLNNKFASFIDKVRFLEQQNKVLETKWTLLQEQGTKTVRQNLEPLFEQYINNLRRQLDSIVGERGRLDSELRGMQDLVEDFKNKYEDEINKRTAAENEFVTLKKDVDAAYMNKVELQAKADTLTDEINFLRALYDAELSQMQTHISDTSVVLSMDNNRNLDLDSIIAEVKAQYEEIAQRSRAEAESWYQTKYEELQVTAGRHGDDLRNTKQEIAEINRMIQRLRSEIDHVKKQCANLQAAIADAEQRGEMALKDAKNKLEGLEDALQKAKQDLARLLKEYQELMNVKLALDVEIATYRKLLEGEECRLNGEGVGQVNISVVQSTVSSGYGGASGVGSGLGLGGGSSYSYGSGLGVGGGFSSSSGRAIGGGLSSVGGGSSTIKYTTTSSSSRKSYKH
partner: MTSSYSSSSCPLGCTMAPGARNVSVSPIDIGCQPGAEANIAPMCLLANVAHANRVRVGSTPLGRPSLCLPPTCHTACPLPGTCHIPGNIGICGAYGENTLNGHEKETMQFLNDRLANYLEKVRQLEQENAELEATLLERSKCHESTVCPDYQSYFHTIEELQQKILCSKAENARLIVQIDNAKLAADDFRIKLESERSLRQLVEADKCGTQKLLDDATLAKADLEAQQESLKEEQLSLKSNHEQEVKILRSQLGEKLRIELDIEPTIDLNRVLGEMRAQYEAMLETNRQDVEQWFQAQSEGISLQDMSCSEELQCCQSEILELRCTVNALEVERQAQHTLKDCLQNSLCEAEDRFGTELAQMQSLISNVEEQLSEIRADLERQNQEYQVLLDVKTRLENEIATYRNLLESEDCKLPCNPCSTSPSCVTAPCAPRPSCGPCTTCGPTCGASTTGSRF
B3: E3 ubiquitin-protein ligase Midline-1 (Homo sapiens), O15344 (parent)
chain: METLESELTCPICLELFEDPLLLPCAHSLCFNCAHRILVSHCATNESVESITAFQCPTCRHVITLSQRGLDGLKRNVTLQNIIDRFQKASVSGPNSPSETRRERAFDANTMTSAEKVLCQFCDQDPAQDAVKTCVTCEVSYCDECLKATHPNKKPFTGHRLIEPIPDSHIRGLMCLEHEDEKVNMYCVTDDQLICALCKLVGRHRDHQVAALSERYDKLKQNLESNLTNLIKRNTELETLLAKLIQTCQHVEVNASRQEAKLTEECDLLIEIIQQRRQIIGTKIKEGKVMRLRKLAQQIANCKQCIERSASLISQAEHSLKENDHARFLQTAKNITERVSMATASSQVLIPEINLNDTFDTFALDFSREKKLLECLDYLTAPNPPTIREELCTASYDTITVHWTSDDEFSVVSYELQYTIFTGQANVVSLCNSADSWMIVPNIKQNHYTVHGLQSGTKYIFMVKAINQAGSRSSEPGKLKTNSQPFKLDPKSAHRKLKVSHDNLTVERDESSSKKSHTPERFTSQGSYGVAGNVFIDSGRHYWEVVISGSTWYAIGLAYKSAPKHEWIGKNSASWALCRCNNNWVVRHNSKEIPIEPAPHLRRVGILLDYDNGSIAFYDALNSIHLYTFDVAFAQPVCPTFTVWNKCLTIITGLPIPDHLDCTEQLP
partner: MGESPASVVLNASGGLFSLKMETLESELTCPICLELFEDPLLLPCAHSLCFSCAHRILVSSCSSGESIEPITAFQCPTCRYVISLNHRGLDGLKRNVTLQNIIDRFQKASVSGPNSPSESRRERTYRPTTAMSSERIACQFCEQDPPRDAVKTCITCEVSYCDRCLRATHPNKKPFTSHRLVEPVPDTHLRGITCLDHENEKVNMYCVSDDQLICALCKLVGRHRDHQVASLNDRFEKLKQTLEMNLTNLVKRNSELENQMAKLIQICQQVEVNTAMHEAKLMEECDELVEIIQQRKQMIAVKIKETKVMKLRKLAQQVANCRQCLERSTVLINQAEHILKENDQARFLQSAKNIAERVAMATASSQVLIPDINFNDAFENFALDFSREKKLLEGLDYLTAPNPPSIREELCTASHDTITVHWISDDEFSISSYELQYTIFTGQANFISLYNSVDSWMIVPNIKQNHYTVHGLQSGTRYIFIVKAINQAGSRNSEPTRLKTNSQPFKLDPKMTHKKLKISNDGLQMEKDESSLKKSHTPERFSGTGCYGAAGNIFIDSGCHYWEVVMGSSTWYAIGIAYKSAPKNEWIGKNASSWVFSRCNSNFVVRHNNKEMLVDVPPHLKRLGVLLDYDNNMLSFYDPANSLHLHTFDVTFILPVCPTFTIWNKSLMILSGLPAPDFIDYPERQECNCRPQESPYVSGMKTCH
B4: U4/U6 small nuclear ribonucleoprotein Prp31 (Homo sapiens), Q8WWY3 (parent)
chain: MSLADELLADLEEAAEEEEGGSYGEEEEEPAIEDVQEETQLDLSGDSVKTIAKLWDSKMFAEIMMKIEEYISKQAKASEVMGPVEAAPEYRVIVDANNLTVEIENELNIIHKFIRDKYSKRFPELESLVPNALDYIRTVKELGNSLDKCKNNENLQQILTNATIMVVSVTASTTQGQQLSEEELERLEEACDMALELNASKHRIYEYVESRMSFIAPNLSIIIGASTAAKIMGVAGGLTNLSKMPACNIMLLGAQRKTLSGFSSTSVLPHTGYIYHSDIVQSLPPDLRRKAARLVAAKCTLAARVDSFHESTEGKVGYELKDEIERKFDKWQEPPPVKQVKPLPAPLDGQRKKRGGRRYRKMKERLGLTEIRKQANRMSFGEIEEDAYQEDLGFSLGHLGKSGSGRVRQTQVNEATKARISKTLQRTLQKQSVVYGGKSTIRDRSSGTASSVAFTPLQGLEIVNPQAAEKKVAEANQKYFSSMAEFLKVKGEKSGLMST
partner: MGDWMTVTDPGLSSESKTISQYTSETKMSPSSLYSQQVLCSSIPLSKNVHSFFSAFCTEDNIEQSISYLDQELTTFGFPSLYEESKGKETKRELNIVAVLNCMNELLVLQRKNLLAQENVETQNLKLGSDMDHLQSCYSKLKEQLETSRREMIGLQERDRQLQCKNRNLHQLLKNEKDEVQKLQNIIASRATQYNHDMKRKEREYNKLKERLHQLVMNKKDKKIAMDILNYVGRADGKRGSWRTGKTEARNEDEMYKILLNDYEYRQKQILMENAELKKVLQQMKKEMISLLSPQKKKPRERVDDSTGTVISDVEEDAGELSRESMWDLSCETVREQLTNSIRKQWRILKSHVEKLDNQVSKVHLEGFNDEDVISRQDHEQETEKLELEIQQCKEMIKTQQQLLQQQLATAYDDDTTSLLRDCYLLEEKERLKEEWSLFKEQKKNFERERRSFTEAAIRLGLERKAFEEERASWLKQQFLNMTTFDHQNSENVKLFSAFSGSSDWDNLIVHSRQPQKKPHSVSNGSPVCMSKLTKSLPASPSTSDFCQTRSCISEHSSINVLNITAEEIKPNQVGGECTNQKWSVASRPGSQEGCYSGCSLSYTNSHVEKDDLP

Variants of: B1
Settings: with ikzf3_human IKZF3, Q9UKT9
Chain of ikzf3_human IKZF3, Q9UKT9 (Q9UKT9 whole entry): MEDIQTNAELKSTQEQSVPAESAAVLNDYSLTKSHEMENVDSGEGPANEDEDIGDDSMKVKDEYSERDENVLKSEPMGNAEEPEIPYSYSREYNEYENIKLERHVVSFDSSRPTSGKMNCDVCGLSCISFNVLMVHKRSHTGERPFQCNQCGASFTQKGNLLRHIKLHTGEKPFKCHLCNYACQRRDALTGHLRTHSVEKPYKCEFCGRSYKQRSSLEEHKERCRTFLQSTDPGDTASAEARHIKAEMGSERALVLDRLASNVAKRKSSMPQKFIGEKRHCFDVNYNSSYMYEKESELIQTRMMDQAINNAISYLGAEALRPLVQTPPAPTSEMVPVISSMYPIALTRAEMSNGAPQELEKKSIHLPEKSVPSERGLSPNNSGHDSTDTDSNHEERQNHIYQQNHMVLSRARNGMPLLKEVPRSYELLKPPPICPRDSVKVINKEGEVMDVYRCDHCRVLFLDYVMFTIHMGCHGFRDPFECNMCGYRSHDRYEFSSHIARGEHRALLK

effect of a mutation on the interaction	Variant
disrupting interaction strength	V36M
disrupting interaction strength	L69P
disrupting interaction strength	F94S

Variants of: B1
Settings: with trip6_human TRIP6, Q15654
Chain of trip6_human TRIP6, Q15654 (Q15654 whole entry): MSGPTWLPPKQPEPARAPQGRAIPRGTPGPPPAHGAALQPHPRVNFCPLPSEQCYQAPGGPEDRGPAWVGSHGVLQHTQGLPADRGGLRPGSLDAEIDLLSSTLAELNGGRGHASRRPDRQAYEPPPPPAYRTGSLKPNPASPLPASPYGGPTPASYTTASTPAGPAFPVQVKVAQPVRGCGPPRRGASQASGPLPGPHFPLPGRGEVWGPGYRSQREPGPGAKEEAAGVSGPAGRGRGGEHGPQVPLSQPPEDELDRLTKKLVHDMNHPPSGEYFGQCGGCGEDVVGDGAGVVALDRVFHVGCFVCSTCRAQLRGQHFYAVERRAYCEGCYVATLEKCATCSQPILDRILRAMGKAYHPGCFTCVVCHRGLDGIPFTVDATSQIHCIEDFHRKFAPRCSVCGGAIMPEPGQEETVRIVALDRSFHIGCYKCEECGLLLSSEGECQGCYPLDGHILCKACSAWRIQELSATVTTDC

effect of a mutation on the interaction	Variant
disrupting interaction strength	V36M
disrupting interaction strength	L69P
disrupting interaction strength	F94S

Variants of: B1
Settings: with gli1_human GLI1, P08151
Chain of gli1_human GLI1, P08151 (P08151 whole entry): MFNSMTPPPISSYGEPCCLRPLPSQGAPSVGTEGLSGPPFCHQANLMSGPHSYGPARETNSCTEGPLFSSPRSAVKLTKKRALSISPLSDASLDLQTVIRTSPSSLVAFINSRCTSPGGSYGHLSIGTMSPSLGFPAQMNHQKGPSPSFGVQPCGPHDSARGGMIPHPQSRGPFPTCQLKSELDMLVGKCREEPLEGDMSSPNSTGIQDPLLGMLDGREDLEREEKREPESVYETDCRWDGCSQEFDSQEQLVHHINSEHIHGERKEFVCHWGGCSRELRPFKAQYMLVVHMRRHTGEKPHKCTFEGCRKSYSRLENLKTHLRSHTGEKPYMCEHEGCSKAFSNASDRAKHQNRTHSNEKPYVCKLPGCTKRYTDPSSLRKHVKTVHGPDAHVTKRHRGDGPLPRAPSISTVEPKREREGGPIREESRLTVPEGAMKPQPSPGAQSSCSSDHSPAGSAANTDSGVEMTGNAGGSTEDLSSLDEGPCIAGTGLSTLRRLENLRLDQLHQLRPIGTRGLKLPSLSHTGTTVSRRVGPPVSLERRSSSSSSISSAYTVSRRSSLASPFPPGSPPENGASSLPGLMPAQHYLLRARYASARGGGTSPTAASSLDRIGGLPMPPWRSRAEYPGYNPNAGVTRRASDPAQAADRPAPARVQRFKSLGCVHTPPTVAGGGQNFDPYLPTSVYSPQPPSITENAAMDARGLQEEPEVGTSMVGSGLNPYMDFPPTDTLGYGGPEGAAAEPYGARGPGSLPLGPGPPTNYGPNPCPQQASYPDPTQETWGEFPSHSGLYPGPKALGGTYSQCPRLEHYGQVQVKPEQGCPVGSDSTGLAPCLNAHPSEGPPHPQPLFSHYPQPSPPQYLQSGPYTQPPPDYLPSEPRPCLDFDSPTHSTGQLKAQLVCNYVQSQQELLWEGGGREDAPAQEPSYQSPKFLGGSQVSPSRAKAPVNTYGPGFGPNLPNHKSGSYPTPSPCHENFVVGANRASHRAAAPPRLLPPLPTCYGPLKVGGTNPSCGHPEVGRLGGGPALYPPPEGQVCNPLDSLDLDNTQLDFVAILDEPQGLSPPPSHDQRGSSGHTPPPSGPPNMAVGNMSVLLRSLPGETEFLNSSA

effect of a mutation on the interaction	Variant
disrupting interaction strength	V36M
disrupting interaction strength	L69P
disrupting interaction strength	F94S

Variants of: B1
Settings: with ccd33_human CCDC33, Q8N5R6
Chain of ccd33_human CCDC33, Q8N5R6 (Q8N5R6 whole entry): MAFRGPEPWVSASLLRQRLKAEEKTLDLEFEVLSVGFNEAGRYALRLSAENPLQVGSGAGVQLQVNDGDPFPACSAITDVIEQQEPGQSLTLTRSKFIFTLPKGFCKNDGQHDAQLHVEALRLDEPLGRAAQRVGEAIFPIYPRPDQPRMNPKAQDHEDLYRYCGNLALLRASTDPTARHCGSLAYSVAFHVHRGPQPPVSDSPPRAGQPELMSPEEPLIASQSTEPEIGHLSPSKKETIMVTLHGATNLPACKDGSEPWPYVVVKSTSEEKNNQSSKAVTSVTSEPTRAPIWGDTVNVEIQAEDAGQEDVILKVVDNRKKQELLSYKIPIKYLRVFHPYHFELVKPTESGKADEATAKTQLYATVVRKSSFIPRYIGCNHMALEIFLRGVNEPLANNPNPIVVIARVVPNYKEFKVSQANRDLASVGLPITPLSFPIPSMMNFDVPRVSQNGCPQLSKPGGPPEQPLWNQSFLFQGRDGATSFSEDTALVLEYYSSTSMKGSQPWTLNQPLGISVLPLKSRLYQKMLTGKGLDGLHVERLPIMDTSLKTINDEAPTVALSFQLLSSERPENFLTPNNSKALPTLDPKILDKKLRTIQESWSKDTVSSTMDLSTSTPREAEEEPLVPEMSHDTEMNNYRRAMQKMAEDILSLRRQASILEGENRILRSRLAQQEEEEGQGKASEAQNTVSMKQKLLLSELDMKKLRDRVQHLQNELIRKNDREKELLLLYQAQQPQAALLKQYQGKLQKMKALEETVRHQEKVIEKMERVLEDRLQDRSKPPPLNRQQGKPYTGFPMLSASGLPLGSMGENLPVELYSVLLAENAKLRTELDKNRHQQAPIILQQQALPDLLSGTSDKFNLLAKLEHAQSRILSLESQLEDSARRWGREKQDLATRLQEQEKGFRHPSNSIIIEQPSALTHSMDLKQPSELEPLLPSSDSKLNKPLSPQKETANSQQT

effect of a mutation on the interaction	Variant
disrupting interaction strength	V36M
disrupting interaction strength	L69P
disrupting interaction strength	F94S

Variants of: B2
Settings: with krt38_human KRT38, O76015

effect of a mutation on the interaction	Variant
with no effect	A463P
with no effect	I462S
with no effect	N171K
with no effect	F174V

Variants of: B2
Settings: with krt38_human KRT38, O76015
Remark: another data set of the same source

effect of a mutation on the interaction	Variant
with no effect	T552S
with no effect	N21S
with no effect	V523F
with no effect	F249L

Variants of: B3
Settings: with MID2, Q9UJV3-2

effect of a mutation on the interaction	Variant
with no effect	K370E
with no effect	L626P
with no effect	C266R
with no effect	P151L

Variants of: B4
Settings: with adip_human SSX2IP

effect of a mutation on the interaction	Variant
with no effect	L107V
